Measured values taken from patent US10618964B2, “Nanobody against IL-6R” (Ablynx N.V., dated 2020).

Experiments:
IL-6R on TF-1 cells = IL-6R on TF-1 cells (Homo sapiens (Human), UniProt P08887); assay: cell-based or functional assay
[1] = biological target: T1, soluble IL-6R in cynomolgous plasma (cynomolgus monkey, UniProt A0A2K5WN54); assay: ELISA 2, periplasmic extract; competitor IL-6; cyno plasma
Protocol: (§1) In this ELISA, plasma was used as a source of native soluble IL-6R. By this assay, we aimed to confirm the alphascreen results and to get a view on the cross-reactivity of the clones towards cynomolgous IL-6R. Human plasma (ELISA 1 and ELISA 3) or cynomolgous plasma (ELISA 2) were pre-incubated with a dilution of the periplasmic extract of the clones together with human IL-6 (50 ng/mL). Subsequently, plasma soluble IL-6R was captured on a B-N12 coated plate and bound IL-6 was detected using anti-IL-6 antibody BAF206 and streptavidin-HRP (ELISA 1 and ELISA 2). The ELISA signal dropped when the Nanobody clone could compete with IL-6 for binding to soluble IL-6R. ELISA 3 was a parallel ELISA in which the detection antibody was replaced by anti-IL-6R antibody BAF227 to exclude false positive competitors, which actually compete with B-N12 (e.g. family 2). Depicted in Table C-5 is the ratio of the OD450 value of the test sample versus the blank OD450 (mock sample). Clones were ordered based on ELISA 1 data.

[2] = biological target: T2, native soluble IL-6R in human plasma (human, UniProt P08887); assay: ELISA 1, periplasmic extract; competitor IL-6; human plasma
Protocol: as §1

[3] = biological target: T2, native soluble IL-6R in human plasma; assay: ELISA 3, periplasmic extract; competitor BN-12; human plasma
Protocol: as §1

[4] = biological target: T1, soluble IL-6R in cynomolgous plasma; assay: plasma potency ELISA, purified Nanobody; competitor IL-6; cyno plasma
Protocol: as §1
(§2) A potency ELISA was done with the purified Nanobodies as described in Example 9. Here, different dilutions of each purified Nanobody were incubated with human (ELISA1) and cynomolgous plasma (ELISA2). IC50 values are depicted in Table C-9.

[5] = biological target: T2, native soluble IL-6R in human plasma; assay: plasma potency ELISA, purified Nanobody; competitor IL-6; human plasma
Protocol: as §1, §2

[6] = biological target: human IL-6R on CHO-K1 cells (clone HuIL6R 4D6) (human, UniProt P08887); assay: FMAT competition; competitor Reference IgG-A647; CHO cells with human IL-6R
Protocol: Eleven inhibitory Nanobodies were tested in competition with labelled Reference IgG for binding to CHO cells expressing hIL-6R or cynoIL-6R.

| Binder | IC50, IL-6-dependent proliferation of TF-1 cells (3H-thymidine) (IL-6R on TF-1 cells) | OD450 ratio sample/blank [1] | OD450 ratio sample/blank [2] | OD450 ratio sample/blank [3] | IC50 [4] | IC50 [5] | IC50 [6] |
| --- | --- | --- | --- | --- | --- | --- | --- |
| IL6RPMP107A9 (VHH) VHH: EVQLVESGGGLVQAGGSLRLSCAASGGIFSDMFMGWFRQAPGKSRESVARISPSGNTFYQDSVRGRFTISTDNAKNTVYLQMNNLKPEDTAVYYCAANVGVTGSYEYWGQGTQVTVSS | 349 nM | 0.0867 | 1.08 | 0.992 | 4.7 nM | 3.5 nM | – |
| IL6RPMP107G10 (VHH) VHH: EVQLVESGGGLVQAGGSLRLSCAASGSIENINAMGWYRQAPGKQRDFLAIITDGSKTLYADSVKGRFTISNDNAKNTVYLQMNSLKPEDTAVYYCNAYQAGWGDYWGQGTQVTVSS | – | 0.883 | 0.523 | 1.01 | – | – | – |
| Reference Fab (Fab, V domains shown) VH: QVQLQESGPGLVRPSQTLSLTCTVSGYSITSDHAWSWVRQPPGRGLEWIGYISYSGITTYNPSLKSRVTMLRDTSKNQFSLRLSSVTAADTAVYYCARSLARTTAMDYWGQGSLVTVSS VL: DIQMTQSPSSLSASVGDRVTITCRASQDISSYLNWYQQKPGKAPKLLIYYTSRLHSGVPSRFSGSGSGTDFTFTISSLQPEDIATYYCQQGNTLPYTFGQGTKVEIKR | – | – | – | – | – | – | 3.4 nM |
| Reference IgG (antibody, V domains shown) VH: QVQLQESGPGLVRPSQTLSLTCTVSGYSITSDHAWSWVRQPPGRGLEWIGYISYSGITTYNPSLKSRVTMLRDTSKNQFSLRLSSVTAADTAVYYCARSLARTTAMDYWGQGSLVTVSS VL: DIQMTQSPSSLSASVGDRVTITCRASQDISSYLNWYQQKPGKAPKLLIYYTSRLHSGVPSRFSGSGSGTDFTFTISSLQPEDIATYYCQQGNTLPYTFGQGTKVEIKR | 0.53 nM | – | – | – | – | – | – |
| IL6RPMP120B2 (VHH) VHH: EVQLVESGGGLVQAGGSLSLSCATSGRTISDDTMAWFRQAPGKEREFVATITFSGARTHYSDSVRDRFTISRDNAKNTVYLQMNSLKSEDTAVYYCAASTKYYSSTYNYIHPAFYDIWGQGTQVTVSS | – | 0.204 | 0.645 | 1.02 | – | – | – |
| IL6RPMP108E1 (VHH) VHH: EVQLVESGGGLVQAGGSLRLSCAASGFTFDDYDIGWFRQAPGKEREGVSGISSSDGNTYYADSVKGRFTISSDNAKNTVYLQMNSLKPEDTAVYYCAAEPPDSSWYLDGSPEFFKYWGQGTQVTVSS | 0.149 nM | 0.359 | 0.0894 | 0.954 | 29.1 nM | 0.15 nM | – |
| IL6RPMP106F4 (VHH) VHH: EVQLVESGGGLVQAGGSLRLSCAASGSIFRINAMGWYRQAPGKQRELVAAAISGGSTNYADFVKGRFTISRDNAKNTVYLQMNSLKPGDTAVYYCNALVVSHNYSDYVPFPDDYWGQGTQVTVSS | – | 1.19 | 0.557 | 1.01 | – | – | – |
| IL6RPMP101G2 (VHH) VHH: EVQLVESGGGLVQAGGSLRLSCAASGSIFRINAMGWYRQAPGKQRELVAAAISGGSTNYADFVKGRFTISRDNAKNTVYLQMNSLKPEDTAVYYCNALVVSHNYSDYVPFPDDYWGQGTQVTVSS | – | 1.04 | 0.597 | 0.975 | – | – | – |
| IL6RPMP106F7 (VHH) VHH: EVQLVESEGGLVQAGGSLRLSCAASGSIFRINAMGWYRQAPGKQRELVAAAISGGSTNYADFVKGRFTISRDNAKNTVYLQMNSLKPEDTAVYYCNALVVSHNYSDYVPFPDDYWGQGTQVTVSS | – | 1 | 0.672 | 1 | – | – | – |
| IL6RPMP105C2 (VHH) VHH: EVQLVESGGGLVQAGGSLRLSCAASGSIFRINAMGWYRQAPGEQRELVAAAISGGSTNYADFVKGRFTISRDNAKNTVYLQMNSLKPEDTAVYYCNALVVSHNYSDYVPFPDDYWGQGTQVTVSS | – | 1.01 | 0.577 | 0.996 | – | – | – |
| IL6RPMP101F2 (VHH) VHH: EVQLVESGGGLVQAGGSLRLSCAASGFAFDDYAIGWFRQAPGKEREGVSSISSSNGNTYYADSVRGRFTISSDNAKNTVYLQMNSLKPEDTGVYYCAAIWGIFFNEKMPVGAYDYWGQGTQVTVSS | – | 0.811 | 0.569 | 0.972 | – | – | – |
| IL6RPMP101C3 (VHH) VHH: EVQLVESGGGLVRAGGSLRLSCAASGFAFDDYAIGWFRQAPGKEREGVSSISSSNGNTYYADSVRGRFTISSDNAKNTVYLQMNSLKPEDTGVYYCAAIWGIFFNEKMPVGAYDYWGQGTQVTVSS | – | 0.801 | 0.58 | 0.975 | – | – | – |
| IL6RPMP105H10 (VHH) VHH: EVQMVESGGGLVQAGGSLRLSCAASGFAFDDYAIGWFRQAPGKEREGVSSISSSNGNTYYADSVRGRFTISSDNAKNTVYLQMNSLKPEDAGVYYCAAIWGIFFNEKMPVGAYDYWGQGTQVTVSS | – | 0.679 | 0.627 | 1.02 | – | – | – |
| IL6RPMP120G6 (VHH) VHH: EVQLVESGGDLVQTGGSLRLSCAASGITVSDRAMGWYRQAPGKQREMVAGVSRGGMTSYADSVKGRLTISRDNAKNSVYLQMNSLNPEDTAVYYCSAYYRYGSSVPQYWGQGTQVTVSS | 10.2 nM | 0.0289 | 0.236 | 0.993 | 0.66 nM | 1.12 nM | – |

Now from value to binder:

| IC50, IL-6-dependent proliferation of TF-1 cells (3H-thymidine) (IL-6R on TF-1 cells) | OD450 ratio sample/blank [1] | OD450 ratio sample/blank [2] | OD450 ratio sample/blank [3] | IC50 [4] | IC50 [5] | IC50 [6] | Binder |
| --- | --- | --- | --- | --- | --- | --- | --- |
| – | 1.19 | 0.592 | 1.02 | – | – | – | IL6RPMP107E4 (VHH) VHH: EVQLVESGGGLVQAGGSLRLSCAASGSIDRINAMGWYRQAPGKQRDFLAVITDGDKTLYADSVKGRFTISNDNAKNTVYLQMNSLKPEDTAVYYCNAYQAGWGDYWGQGTQVTVSS |
| – | 0.187 | 0.567 | 1.02 | – | – | – | IL6RPMP120C1 (VHH) VHH: EVQLVESGGGLVQAGGSLSLSCATSGRTISDDTMAWFRQAPGKEREFVATITFSGARTHYSDSVRDRFTISRDNAKNTVYLQMNSLKSEDTAVYYCAASTKYYSSTYNYIHPAFYDIWGQGTQVTVSS |
| – | 0.158 | 0.659 | 0.993 | – | – | – | IL6RPMP120D2 (VHH) VHH: EVQLVESGGGLVQAGGSLSLSCATSGRTISDDTMAWFRQAPGKEREFVATITFSGARTHYSDSVRDRFTISRDNAKNTVYLQMNSLKSEDTAVYYCAASTKYYSSTYNYIHPAFYDIWGQGTQVTVSS |
| – | 0.198 | 0.598 | 1.01 | – | – | – | IL6RPMP120A1 (VHH) VHH: EVQLVESGGGLVQAGGSLSLSCATSGRTISDDTMAWFRQAPGKEREFVATITFSGARTHYSDSVRDRFTISRDNAKNTVYLQMNSLKSEDTAVYYCAASTKYYSSTYNYIHPAFYDIWGQGTQVTVSS |
| 4.05 nM | 0.292 | 0.215 | 0.967 | 47.8 nM | 0.38 nM | – | IL6RPMP107A1 (VHH) VHH: EVQLVESGGGLVQAGGSLNLSCNASGDIGSINAMGWYRQAPGQQREWVAVITDTDSTIYPDSVKGRFAISRDGAKNTVHLRMSSLKPEDTAVYYCNAYQAGWGDYWGQGTQVTVSS |
| 116 nM | 0.202 | 1.71 | 0.997 | – | – | – | IL6RPMP100G11 (VHH) VHH: EVQLVESGGGLVQAGGSLRLSCAASGRGFSPYTMGWFRQAPGKERVFVAGISWSTGIAHYTDSVKGRFTISRDNAKNTGSLQMNSLKPEDTAVYYCAVVQTTKGNYDYWGQGTQVTVSS |
| 245 nM | 0.735 | 1.46 | 1.05 | 252 nM | 7.8 nM | – | IL6RPMP104B8 (VHH) VHH: EVQLVESGGGLVQAGGSLRLSCAASGFAFDDYAIGWFRQAPGKEREGVSSISSSNGNTYYADSVRGRFTISSDNAKNTVYLQMNSLKPEDTGVYYCAAIWGIFFNEKMPVGAYDYWGQGTQVTVSS |
